Measurements as given in the supplement of paper PMC11246515.
± gives the standard deviation of the averaged measurements.

Assay: total protein half-life in vivo (active degradation + dilution); higher = more stable protein
[1] = E. coli NCM3722 delta-clpP delta-lon delta-hslV, growth: N-lim chemostat, doubling time 6 h
[2] = E. coli NCM3722 delta-clpP, growth: N-lim chemostat, doubling time 6 h
[3] = E. coli NCM3722 delta-hslV, growth: N-lim chemostat, doubling time 6 h
[4] = E. coli NCM3722 delta-lon, growth: N-lim chemostat, doubling time 6 h
[5] = E. coli NCM3722 delta-smpB, growth: N-lim chemostat, doubling time 6 h
[6] = wild type E. coli NCM3722, growth: C-lim chemostat, doubling time 3 h
[7] = wild type E. coli NCM3722, growth: C-lim chemostat, doubling time 6 h
[8] = wild type E. coli NCM3722, growth: C-lim chemostat, doubling time 12 h
[9] = wild type E. coli NCM3722, growth: N-lim chemostat, doubling time 6 h
[10] = wild type E. coli NCM3722, growth: N-lim chemostat, doubling time 12 h
[11] = wild type E. coli NCM3722, growth: P-lim chemostat, doubling time 6 h
[12] = wild type E. coli NCM3722, growth: P-lim chemostat, doubling time 12 h

Sequence | total protein half-life in vivo [1] [h] | total protein half-life in vivo [2] [h] | total protein half-life in vivo [3] [h] | total protein half-life in vivo [4] [h] | total protein half-life in vivo [5] [h] | total protein half-life in vivo [6] [h] | total protein half-life in vivo [7] [h] | total protein half-life in vivo [8] [h] | total protein half-life in vivo [9] [h] | total protein half-life in vivo [10] [h] | total protein half-life in vivo [11] [h] | total protein half-life in vivo [12] [h]
MLDKIDRKLLALLQQDCTLSLQALAEAVNLTTTPCWKRLKRLEDDGILIGKVALLDPEKIGLGLTAFVLIKTQHHSSEWYCRFVTVVTEMPEVLGFWRMAGEYDYLMRVQVADMKRYDEFYKRLVNSVPGLSDVTSSFAMEQIKYTTSLPIE [P0ACJ5] | 5.92 ± 0.82 | 4.67 ± 0.26 | 4.43 ± 1.7 | 5.95 | 5.08 ± 0.24 | 3.37 ± 0.6 | 5.09 ± 0.47 | 8.43 ± 3.3 | 4.34 ± 0.2 | 9.01 ± 4.2 | 4.45 | 10.3 ± 3.2
MLDKLDAALRFQQEALNLRAQRQEVLAANIANADTPGYQARDIDFASELKKVMQRGRDATSVVALTMTSTQHIPAQALTPPTAELQYRIPDQPSLDGNTVDMDRERTQFADNSLQYQMSLSALSGQIKGMMNVLQSGN [P0ABW9] |  |  |  |  |  | 1.32 |  |  |  |  |  | 
MLDKLRSRIVHLGPSLLSVPVKLTPFALKRQVLEQVLSWQFRQALDDGELEFLEGRWLSIHVRDIDLQWFTSVVNGKLVVSQNAQADVSFSADASDLLMIAARKQDPDTLFFQRRLVIEGDTELGLYVKNLMDAIELEQMPKALRMMLLQLADFVEAGMKTAPETKQTSVGEPC | 3.71 ± 1.3 | 2.5 |  |  | 0.825 ± 0.014 | 0.352 ± 0.048 |  |  |  |  | 0.825 | 
MLDLFADAEPWQEPLAAGAVILRRFAFNAAEQLIRDINDVASQSPFRQMVTPGGYTMSVAMTNCGHLGWTTHRQGYLYSPIDPQTNKPWPAMPQSFHNLCQRAATAAGYPDFQPDACLINRYAPGAKLSLHQDKDEPDLRAPIVSVSLGLPAIFQFGGLKRNDPLKRLLLEHGDVVVWGGESRLFYHGIQPLKAGFHPLTIDCRYNLTFRQAGKKE |  | 4.32 | 2.76 | 3.17 | 3.02 ± 0.09 |  |  |  | 2.87 ± 0.47 | 4.66 ± 0.55 | 3.76 ± 0.13 | 5.89
MLEEYRKHVAERAAEGIAPKPLDANQMAALVELLKNPPAGEEEFLLDLLTNRVPPGVDEAAYVKAGFLAAIAKGEAKSPLLTPEKAIELLGTMQGGYNIHPLIDALDDAKLAPIAAKALSHTLLMFDNFYDVEEKAKAGNEYAKQVMQSWADAEWFLNRPALAEKLTVTVFKVTGETNTDDLSPAPDAWSRPDIPLHALAMLKNAREGIEPDQPGVVGPIKQIEALQQKGFPLAYVGDVVGTGSSRKSATNSVLWFMGDDIPHVPNKRGGGLCLGGKIAPIFFNTMEDAGALPIEVDVSNLNMGDVIDVYPYKGEVRNHETGELLATFELKTDVLIDEVRAGGRIPLIIGRGLTTKAREALGLPHSDVFRQAKDVAESDRGFSLAQKMVGRACGVKGIRPGAYCEPKMTSVGSQDTTGPMTRDELKDLACLGFSADLVMQSFCHTAAYPKPVDVNTHHTLPDFIMNRGGVSLRPGDGVIHSWLNRMLLPDTVGTGGDSHTRFPIGISFPAGSGLVAFAAATGVMPLDMPESVLVRFKGKMQPGITLRDLVHAIPLYAIKQGLLTVEKKGKKNIFSGRILEIEGLPDLKVEQAFELTDASAERSAAGCTIKLNKEPIIEYLNSNIVLLKWMIAEGYGDRRTLERRIQGMEKWLANPELLEADADAEYAAVIDIDLADIKEPILCAPNDPDDARPLSAVQGEKIDEVFIGSCMTNIGHFRAAGKLLDAHKGQLPTRLWVAPPTRMDAAQLTEEGYYSVFGKSGARIEIPGCSLCMGNQARVADGATVVSTSTRNFPNRLGTGANVFLASAELAAVAALIGKLPTPEEYQTYVAQVDKTAVDTYRYLNFNQLSQYTEKADGVIFQTAV | 5.12 ± 0.25 | 3.86 ± 0.1 | 3.56 ± 0.021 | 3.3 ± 0.063 | 2.96 ± 0.046 | 2.579 ± 0.021 | 4.71 ± 0.057 | 7.2 ± 0.21 | 3.578 ± 0.02 | 4.92 ± 0.14 | 3.56 ± 0.094 | 5.84 ± 0.098
MLELNAKTTALVVIDLQEGILPFAGGPHTADEVVNRAGKLAAKFRASGQPVFLVRVGWSADYAEALKQPVDAPSPAKVLPENWWQHPAALGATDSDIEIIKRQWGAFYGTDLELQLRRRGIDTIVLCGISTNIGVESTARNAWELGFNLVIAEDACSAASAEQHNNSINHIYPRIARVRSVEEILNAL [P0ADI7] | 5.53 ± 0.15 | 5.05 ± 0.3 | 4.968 ± 0.024 |  | 5.08 ± 0.54 | 3.07 ± 0.33 | 5.75 ± 0.29 | 10.9 ± 0.94 | 5.19 ± 0.59 | 9.838 ± 0.087 | 5.81 ± 0.12 | 12.7 ± 0.69
MLFTLKKVIGNMLLPLPLMLLIIGAGLALLWFSRFQKTGKIFISIGWLALLLLSLQPVADRLLRPIESTYPTWNNSQKVDYIVVLGGGYTWNPQWAPSSNLINNSLPRLNEGIRLWRENPGSKLIFTGGVAKTNTVSTAEVGARVAQSLGVPREQIITLDLPKDTEEEAAAVKQAIGDAPFLLVTSASHLPRAMIFFQQEGLNPLPAPANQLAIDSPLNPWERAIPSPVWLMHSDRVGYETLGRIWQWLKGSSGEPRQE [P0AB01] | 6.15 ± 0.43 | 6.08 ± 0.23 |  | 5.87 ± 0.097 | 5.72 ± 0.58 | 3.28 ± 0.37 | 5.4 ± 0.28 | 10.5 ± 4.9 | 6.09 ± 0.25 |  | 6.876 ± 0.0024 | 10.6 ± 2.9
